Reference: the supplement of paper PMC10567573

B1: TOR1AIP2 (parent)
chain: YKYCDHENAAFKDVALVLTVLLEE
B2: SLC19A2 (parent)
chain: FASLRPSEPFLTPYLLGPDKNLTE

Variants of: B1
Assay: protein stability index of a GFP-peptide fusion (GPS, HEK-293T) (PSI 1-6); higher = more stable
Conditions: c terminus: a fixed tail appended
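Also: lentivirally expressed fusions sorted by FACS into six bins by GFP to DsRed ratio, PSI derived from sequencing read proportions per bin multiplied by bin number.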

Protein stability index, by site and new letter:
H6: C 2.09; V 2.57; Q 3.06; P 2; I 1.05; G 2.26; L 2.49
K12: C 4.02; D 1.81; A 3.1
K2: L 2.81; D 2.03; W 1.98; Y 2.95; N 1.99; S 2.14; M 1.96
N8: Q 2.7; V 1.81; M 3.45; Y 2.07; R 4.51; E 1.56; S 2.9
Y1: K 2.68; N 2.13; R 2.28; H 1.04; T 2.48; D 1.03; L 2.17; P 1.71; C 2.66
F11: H 2.44; S 2.04; I 1.07; A 2.73; K 1.2; G 3.68; Q 2.6; T 1.49; C 1.03; Y 2.67; N 1.38
D5: R 3.8; N 2.94; S 2.61; L 2.43; E 3.08; P 3.2; Y 2.4
C4: D 1.05; G 1.35
Y3: D 2.78; C 1.51; A 3.02; L 2.89; V 1.83; P 3.07; S 2.41
E7: Q 2.52; L 2.71; R 2.5; P 3.94; N 3.84; I 3.39; C 4.53; S 2.31
A9: D 1.4; Q 3.72; I 3.88; W 3.05; N 3.72; E 1.75; C 4.55
A10: S 1.98; I 2.35; G 2.42; Y 3.38; K 3.02; R 1.01; W 3.86; P 1.16; M 1.93; L 2.83

Variants of: B2
Assay: as above
Conditions: c terminus: a fixed tail appended

Protein stability index of substitutions, site by site:
L11: W 3.29; V 1.61
L15: T 2.19; Y 1.78; I 1.99; G 1.77; C 2.23; N 2.3; F 1.67; P 1.97; H 1.55; V 1.86; S 1.79; A 1.91; K 1.84; R 1.68; Q 1.76; E 2.03; W 1.44; D 2.43; M 2.23
L16: K 2.27; G 2.85; P 1.79; E 2.21; N 2.12; Q 1.8; A 2.31; D 2.65; C 2.07; H 2.86; M 1.79; V 1.79; R 2.44; T 1.8; I 1.51; Y 1.3; F 2.04; W 2.14; S 2.56
P13: G 1.59; D 2.28; H 1.76; W 1.88; E 1.95; A 2.58; C 1.84; S 1.99; Q 1.94; T 1.66; N 1.86; L 2.14; M 1.46; V 2.02; F 2.1; Y 1.58; R 1.68; K 2.56; I 2.91
K20: H 1.97; T 1.45; D 2.1; L 2.1; A 2.14; C 1.18; Q 2.05; E 1.94; N 2.13; I 2.44; S 2.29; P 1.92; R 1.94; W 2.04; M 1.98; F 1.62; G 2.04; Y 1.28; V 1.84
L22: H 2.16; M 1.59; D 2.65; R 1.92; Y 1.84; P 1.86; Q 1.99; W 1.98; T 2.25; G 2.04; A 2.1; I 1.86; K 2.34; F 1.62; N 2.35; S 2.1; C 1.96; E 2.03; V 1.52
P18: Q 2; V 1.41; M 2.06; S 1.87; R 1.55; Y 1.61; K 2.12; I 2.31; E 2.27; A 1.65; C 1.98; T 1.4; W 1.76; H 2.53; F 1.54; N 1.48; L 1.8; G 1.51; D 2
T12: L 1.67; E 3.47; H 1.72; K 1.88; I 2; A 1.79; Y 2.24; F 1.74; D 1.97; R 1.74; G 2.35; V 1.28; N 2.05; W 2.17; M 1.93; S 1.93; C 2.1; P 1.89; Q 2.3
T23: M 1.52; K 2.09; L 1.64; D 1.97; F 1.3; W 1.65; R 1.42; Y 2.27; S 1.7; Q 3.16; C 2.12; V 1.29; G 1.86; P 2.31; A 2.24; I 1.58; H 2.8; N 1.84; E 2.02
N21: F 1.67; Y 2.42; S 1.47; Q 1.88; D 1.84; H 1.29; V 2.51; G 1.52; I 2.02; R 1.95; K 1.6; W 2.31; T 1.56; M 2.39; E 2.02; A 1.51; P 1.31; C 1.33; L 1.87
Y14: H 2.57; N 3.22; P 3.25; T 2.58; V 2.22; M 2.6; A 2.42; C 2.27; R 2.87; I 2.66; G 2.18; W 1.46; E 2.76; S 2.21; Q 2.69; F 2.38; L 2.06; K 2.42; D 2.49
G17: P 2.62; K 2.23; I 4.07; F 2.15; A 1.81; N 2.06; V 1.89; D 1.59; L 2.22; M 1.7; R 1.99; T 1.96; S 2.41; Y 1.79; E 1.86; H 1.75; C 1.05; W 2.1; Q 2.23
D19: W 3.08; L 1.58; S 2.5; M 2.1; Y 2.89; T 1.9; G 1.75; Q 1.57; A 1.56; R 2.25; E 2.24; V 2.16; C 1.44; F 1.87; P 1.67; K 1.58; H 1.57; N 1.46; I 1.92
E24: Q 2.06; S 1.94; K 1.96; L 1.27; R 2.39; P 2.41; Y 2.08; C 2.46; D 2.01; N 1.38; V 1.49; F 2.45; A 1.89; M 2.03; W 2.43; H 1.93; I 2.1; G 2.15; T 1.8
